# Measurements published in patent EP1486509A2, “Radiolabeled annexin-galactose cluster conjugates” (NEORX CORPORATION, priority 1994, dated 1996).
# How the values were obtained:
# [1] = tested on: atrial thrombi and injured left atrium; parameters: species or system Yorkshire swine; conditions: in vivo
# Description: Image acquisition was performed as described below. […] A final blood sample was taken for well counting.
# D. Sample Collection. […] Each vial was counted for 1 minute.
# Well counting ratios were obtained for a variety of tissue samples. For the injured tissues and thrombi, multiple specimens were usually taken from the same animal. In those cases, the maximum ratio for any one specimen is reported, as well as the average of all specimens taken. The maximum for each animal was averaged across all animals and is reported as the Maximum Anx-V Ratio.
# [2] = Blood clearance in the swine model; conditions: in vivo
# Text: An animal model, as previously described in Example III, was employed to evaluate blood clearance of the molecules.
substance,measurement,setting,value
Tc-99m-annexin V: Annexin V radiolabeled with Tc-99m by a diamide dimercaptide N2S2 chelate (Example I),highest non-target localization,[1],kidney
same,%ID/g a,[2],%ID/g a = 0.0389
same,%ID/g b,[2],%ID/g b = 0.0300
